Results from PMC2668526 (Bioorganic & medicinal chemistry, 2008).

Experiments:
Experiment in all cases: purified protein, by the assay type
Settings in all cases: other: O2 consumption, 5.0 mM ascorbate, pH 6.0, 37 °C
[1] = substrate: O=C(O)CNC(=O)c1cccs1
[2] = substrate: CC(Cc1ccccc1)C(=O)NCC(=O)O
[3] = substrate: O=C(O)CNC(=O)CNC(=O)CNC(=O)c1ccccc1
[4] = substrate: O=C(O)CNC(=O)c1c(F)cccc1F
[5] = substrate: O=C(O)CNC(=O)/C=C/c1ccccc1
[6] = substrate: O=C(O)CNC(=O)CCCCCCCc1ccccc1
[7] = substrate: O=C(O)CNC(=S)CCc1ccccc1
[8] = substrate: O=C(O)CNC(=O)CCCc1ccccc1
[9] = substrate: CC(C)(C)OC(=O)NCC(=O)NCC(=O)O
[10] = substrate: O=C(O)CNC(=O)c1ccccc1
[11] = substrate: O=C(O)CNC(=O)c1cccnc1
[12] = substrate: CCc1ccc(C(=O)NCC(=O)O)cc1
[13] = substrate: O=C(O)CNC(=O)c1ccc(C(F)(F)F)cc1
[14] = substrate: O=C(O)CNC(=O)CNC(=O)c1ccc([N+](=O)[O-])cc1
[15] = substrate: CCCc1ccc(C(=O)NCC(=O)O)cc1
[16] = substrate: O=C(O)CNC(=O)Nc1ccccc1
[17] = substrate: O=C(O)CNC(=O)c1cccc(Cl)c1
[18] = substrate: C[C@@H](NC(=O)c1ccccc1)C(=O)O
[19] = substrate: O=C(O)CNC(=S)Cc1ccccc1
[20] = substrate: Nc1ccccc1C(=O)NCC(=O)O

B1: rat PAM (Rattus norvegicus) (protein)
chain: FKETTRSFSNECLGTIGPVTPLDASDFALDIRMPGVTPKESDTYFCMSMRLPVDEEAFVIDFKPRASMDTVHHMLLFGCNMPSSTGSYWFCDEGTCTDKANILYAWARNAPPTRLPKGVGFRVGGETGSKYFVLQVHYGDISAFRDNHKDCSGVSVHLTRVPQPLIAGMYLMMSVDTVIPPGEKVVNADISCQYKMYPMHVFAYRVHTHHLGKVVSGYRVRNGQWTLIGRQNPQLPQAFYPVEHPVDVTFGDILAARCVFTGEGRTEATHIGGTSSDEMCNLYIMYYMEAKYALSFMTCTKNVAPDMFRTIPAEANIPIPVKPDMVMMHGHHKEAENKEKSALMQQPKQGEEEVLEQDFHVEEELDWPGVYLLPGQVSGVALDSKNNLVIFHRGDHVWDGNSFDSKFVYQQRGLGPIEEDTILVIDPNNAEILQSSGKNLFYLPHGLSIDTDGNYWVTDVALHQVFKLDPHSKEGPLLILGRSMQPGSDQNHFCQPTDVAVEPSTGAVFVSDGYCNSRIVQFSPSGKFVTQWGEESSGSSPRPGQFSVPHSLALVPHLDQLCVADRENGRIQCFKTDTKEFVREIKHASFGRNVFAISYIPGFLFAVNGKPYFGDQEPVQGFVMNFSSGEIIDVFKPVRKHFDMPHDIVASEDGTVYIGDAHTNTVWKFTLTEKMEHRSV
With B1 the Km [1] was 1600 ± 100 µM, the kcat/Km [1] was 6000 ± 300 M⁻¹ s⁻¹ and the Km [2] was 4100 ± 300 µM. It also gave a kcat [2] of 18 ± 0.9 s⁻¹, a kcat/Km [2] of 4300 ± 100 M⁻¹ s⁻¹ and a Km [3] of 310 ± 60 µM. For the same protein, the kcat [3] was 8.8 ± 1.3 s⁻¹, the kcat/Km [3] was 29000 ± 2000 M⁻¹ s⁻¹ and the Km [4] was 19000 ± 4000 µM. For the same protein, the kcat [4] was 4.3 ± 0.6 s⁻¹, the kcat/Km [4] was 230 ± 20 M⁻¹ s⁻¹ and the Km [5] was 230 ± 20 µM. For the same protein, the kcat [5] was 8.4 ± 0.3 s⁻¹, the kcat/Km [5] was 36000 ± 3000 M⁻¹ s⁻¹ and the Km [6] was 0.10 ± 0.009 0.064 ± 0.006 mM. For the same protein, the kcat [6] was 8 ± 0.3 s⁻¹, the kcat/Km [6] was 76000 ± 4000 M⁻¹ s⁻¹ and the Km [7] was 0.038 ± 0.02 0.023 ± 0.002 mM. The kcat [7] was 1.6 ± 0.2 s⁻¹, the kcat/Km [7] was 42000 ± 14000 M⁻¹ s⁻¹ and the Km [8] was 160 ± 20 µM. The kcat [8] was 11 ± 0.4 s⁻¹, the kcat/Km [8] was 70000 ± 7000 M⁻¹ s⁻¹ and the Km [9] was 300 ± 30 µM. It also gave a kcat [9] of 7.5 ± 0.2 s⁻¹, a kcat/Km [9] of 25000 ± 1000 M⁻¹ s⁻¹ and a Km [10] of 1300 ± 40 µM. It also gave a kcat [10] of 8.2 ± 0.08 s⁻¹, a kcat/Km [10] of 6200 ± 100 M⁻¹ s⁻¹ and a Km [11] of 1900 ± 100 µM. The kcat [11] was 8 ± 0.2 s⁻¹, the kcat/Km [11] was 4200 ± 200 M⁻¹ s⁻¹ and the Km [12] was 1200 ± 200 µM. For the same protein, the kcat [12] was 3.6 ± 0.3 s⁻¹, the kcat/Km [12] was 3100 ± 500 M⁻¹ s⁻¹ and the Km [13] was 770 ± 100 µM. It also gave a kcat [13] of 2.8 ± 0.1 s⁻¹, a kcat/Km [13] of 3600 ± 500 M⁻¹ s⁻¹ and a Km [14] of 110 ± 7 µM. The kcat [14] was 8.7 ± 0.2 s⁻¹, the kcat/Km [14] was 76000 ± 4000 M⁻¹ s⁻¹ and the Km [15] was 1200 ± 200 µM. The kcat [15] was 5.1 ± 0.4 s⁻¹, the kcat/Km [15] was 4200 ± 600 M⁻¹ s⁻¹ and the Km [16] was 0.36 ± 0.08 0.45 ± 0.05 mM. For the same protein, the kcat [16] was 9.7 ± 0.9 s⁻¹, the kcat/Km [16] was 27000 ± 4000 M⁻¹ s⁻¹ and the Km [17] was 2200 ± 200 µM. It also gave a kcat [17] of 7.8 ± 0.3 s⁻¹, a kcat/Km [17] of 3600 ± 200 M⁻¹ s⁻¹ and a Km [18] of 84000 ± 23000 µM. It also gave a kcat [18] of 0.27 ± 0.03 s⁻¹, a kcat/Km [18] of 3.2 ± 0.6 M⁻¹ s⁻¹ and a Km [19] of 24 ± 5 µM. The kcat [19] was 2.4 ± 0.2 s⁻¹, the kcat/Km [19] was 100000 ± 20000 M⁻¹ s⁻¹ and the Km [20] was 1400 ± 100 µM. For the same protein, the kcat [20] was 4.2 ± 0.1 s⁻¹ and the kcat/Km [20] was 2900 ± 100 M⁻¹ s⁻¹.
